Assay results: the DeepSol protein solubility set

Assay: soluble on expression in E. coli; label from the status in PepcDB or PDB records

Sequence	soluble on expression in E. coli
MRFPPLLFFQDSEAVKRIANSVRGTKDDDAEIKDHSMRFIRNAISGDQQKEILNVDMLRYIAWVLVALNENIVTARTVIRERDAVEDALKNQQPEDIENFADDLKINMKYNRDLERFEIGVFDFVKYASRVTGSQYRLSNQSVIKGIVYCQKDVAIKILRESFVSNMFKVIDSIDQTTASPVLSDQTDSINELREFYKKSVYAKLTIGRGNTKAFPPCMKEIIRNLHEGINVPHMGRLAIASFLHKVGYTEDEIVEYFRNAPDFDESITRYQIKHLSGEISGVEYSPPKCETMRSNHLCFMDDDKLCHQDWMKHPLTYYEVKSRRLGMAGDPNSLEHHHHHH	not soluble
MGSDKIHHHHHHMSTANIAPAIRIGVLGFGGLGQAAAKVLAGKREMKLVAVADQKGYAYAAAGLNFKDCIATYQSQGSVGYLEPVGSLGNNSIQDLIDSSQPVDGYFLALPNLPNDFIPSVARQFIQSGWRGVLVDAIKRTSAVEQLIAMKDELQAAGITYMTGCGATPGLLTAAAALAAQSYAEIHQVEITFGVGIANWEAYRATVREDIGHMPGYTVEAARAMTDAEVEALLDKTNGVLTLQNMEHADDVMLELAGIVERDRVTVGGVVDTRNPKKPLSTNVKVTGRTFEGKISTHTFTLGDETSMAANVCGPAFGYLKAGMQLHQRGIHGIFTAAEIMPQFVK	not soluble
MVVIIPPKLSVSTLMGVLKGRSAIRLFNKFPHVRKKQWGNSFWARGYFVDTVGVNEEIIRRYVRHQDKQDQEHEAQLSLQMM	soluble
MLRQLTFLFPTKFHRGKKLRTQRYRGLQSKEKKKLSLLTTKFSDEAWGDNHKNKVVYRAQDRFHNPLFIVLMVVKKKLDHKKLIDNNSHYHVCI	not soluble
MTENAQDKARQAVETVVKSPELVEQILSDEYVQIMIARCFHSGPLPPPSDLAQYNDIISNGADRIMAMAEKEQAVRHETIRQDQTFNRRGQ	not soluble
MIFERIKSEGLAHLSYFVGSGNEAIVIDPRRDCQIYFDIARREGMKIKYIFETHRNEDYVIGSLELKELTDAEIYHGKGVDFKYGIFVSDGQEFNFGSMKLTALHTPGHTDESMSYALTYPESGKAPLMVFTGDALFVGDVGRTDLYGPEEIPRMAANLYESIFNKILPLGDGVILCPAHGAGSLCGGAISKREYSTLGLERIQNPALQRTDKEEFIKFKLEEKLEFPPYFKKMEQYNLQGPPLLKGLPVPELLFPKEFVKEMEKGAMVVDTRMPHSFGGAHIKGSYGIWLKGLPYYAGWVLPYDKPILLVLEEKDQLETAVSYLVRIGYDSIAGFLNGGISSWYMKALPVESLNLISVQSLKDKIEKNEEMVILDVRRDEEWEKGHIEGARHVYVGHLEENLDKVPRNSPIIVYCDSSRRSNIAASILKKKGYDMVYNVLGSMTAWKNAGYKVVKLEHHHHHH	soluble
MRTLLDLDPKGKRVLVRVDYNVPVQDGKVQDETRILESLPTLRHLLAGGASLVLLSHLGRPKGPDPKYSLAPVGEALRAHLPEARFAPFPPGSEEARREAEALRPGEVLLLENVRFEPGEEKNDPELSARYARLGEAFVLDAFGSAHRAHASVVGVARLLPAYAGFLMEKEVRALSRLLKDPERPYAVVLGGAKVSDKIGVIESLLPRIDRLLIGGAMAFTFLKALGGEVGRSLVEEDRLDLAKDLLGRAEALGVRVYLPEDVVAAERIEAGVETRVFPARAIPVPYMGLDIGPKTREAFARALEGARTVFWNGPMGVFEVPPFDEGTLAVGQAIAALEGAFTVVGGGDSVAAVNRLGLKERFGHVSTGGGASLEFLEKGTLPGLEVLEG	soluble
RRAELNTNETDESEKVIEGYFAVFNSETELFPGAFEEILPGAFDNTLENDVRALINHDTALVLGRNVSKTLSLRVDDKGLWGQIKINPLDSDAINLYERVKRGDVSQCSFGFNIIKEQEEWRDDGSVKWSLEEVELHEVSVCTFPAY	not soluble
MSLDVTAKYELIGLMAYPIRHSLSPEMQNKALEKAGLPFTYMAFEVDNDSFPGAIEGLKALKMRGTGVSMPNKQLACEYVDELTPAAKLVGAINTIVNDDGYLRGYNTDGTGHIRAIKESGFDIKGKTMVLLGAGGASTAIGAQGAIEGLKEIKLFNRRDEFFDKALAFAQRVNENTDCVVTVTDLADQQAFAEALASADILTNGTKVGMKPLENESLVNDISLLHPGLLVTECVYNPHMTKLLQQAQQAGCKTIDGYGMLLWQGAEQFTLWTGKDFPLEYVKQVMGFGAEGGSHHHHHH	soluble
FPQLPPAPDDYPTFPDTSTWPVVFPELPAAPYGGPCRPPQHTSKAAAPRIPADRLPNHVAIVMDGNGRWATQRGLARTEGHKMGEAVVIDIACGAIELGIKWLSLYAFSTENWKRSPEEVRFLMGFNRDVVRRRRDTLKKLGVRIRWVGSRPRLWRSVINELAVAEEMTKSNDVITINYCVNYGGRTEITEATREIAREVAAGRLNPERITESTIARHLQRPDIPDVDLFLRTSGEQRSSNFMLWQAAYAEYIFQDKLWPDYDRRDLWAACEEYASRTRRFGSA	soluble
MSLTGETLFGTIELVGYRDNYGQIKIPRRPLNPGEKVYGVDYEFLSKFYKFDENTSINIGNLIGYDKGSNIVPVYLDVNKLVTEHLAVLAMTGSGKSYTVGRIIERLVAEMNGTVVVFDVHGEYGKAFEKGEIHFNNNLDFIEDEREKKSIQRIQENLIKMQNAGGGIKVYTPQIDSFDYKYSGKNHHLALQFDRFDMDDLSSILPGLTEAQERVLDVAIRYWKAKYNHPPRDIQDLTYLLSDEQGLEELKNWDNLTEGEAKALNNRSAAVASMKLTRVINEAKSFYTRAIGEPTDIYDMIGEKGNSVGRLVIIDLQGLSDDAKQIITALISSEIMRAASDKKRQIRPCFLVYEEGHNFAPAGIPSISKKIIKKIAAEGRKFGVGFAIISQRPSKLDPDVTSQCNTIITMRLKNPDDQRFIAKTSDMFSSSDIEELPSLSTGEALINGRSIPAPLLVKVGTKALIHGGESPEVIKEWGVFNGEGHHHHHH	not soluble
MGSDKIHHHHHHMIKIKKSEDCCGCSACLSICNHNAIVFKEDVEGFKYPMIEEGKCINCGLCEMACPILYRKVKDIRPTPKAYFAARHKNIVTLRNSSSGGAFTAIAGSVIELGGVVCGVEYDNDGVVRHSFSETMEGIRSFMGSKYVQSEIQGVYNQIKTYLKSDRWVLFTGSPCQVEGLKLFLRKPYENLLTVDLVCHAVPSPLIYKQYINMCSTKLGQKVMSINMRYKQTYGWSHRFSYCFYFENGQKAVDPVWVVNWGKIFFSQMINRPSCHSCKYSNLDRPGDFTIADFWDDKKNRPDLYSCEGTSLLMVNTNMGLDLINKLYDSIDLWKITKDEAMQPCLIRPTCSNQRRQEFWEFYLLRGFDAAYKKYFGDSKYVITKKIVKQIIKRVLRKLQ	not soluble
RIGIVVAAHGNSTASSMVQVVSQLLNVDNLKAVDMPLDMPPKEALRKIVEAVGEVNEENGVLLLVDMGSLSTFSEEIVRQTGIDVRTVDMVTTPIVLEAARKTALIDTQLETLHESLKNFHGYADIRQSETKQ	soluble
MAHHHHHHMTGWRQIVRCSICHLNRCAYPVTPALTDLKHLKHMWTLHGEAAPTADKQCLLLALAAEAGEQLAELNSRQAAAQAKAKEAQLAIAKHLGMLEMAVEASSYKIVDSTTPVNADSSANTAKLSLKIARGNNAGCSLTKAGEGNPFADDPLNEQNILNLKLTAATDVVKSLKETAISIRSASSNCPSDSTGKTGIKEALGSCNLGGSAEYEFTTAAATTGNAQSSVPVFKEESTTTNCGEVSGLSAEAMSPAQKLAKAICEAIKAKAGEGKTLRTATGETLSNRKTIQTFLRNCVPEFQKKN	not soluble
SLQVNTPQTEETANQAKRHVADYTMDGISATALDERGVTKYRFTGVHMNHYEDDLTYDVTFPALRIYAPDRPQVTARADLGKMNGEGSIIDLYDNAKVVRAQGPDLRQDPLMTADSTYFQVLLNDDVVRTDKPVELHRGPSVMNANGLVFNNVTRQVQLLGNVRGRIEGLGAPKQ	soluble
MIIIGIDEAGRGPVLGPMVVCAFAIEKEREEELKKLGVKDSKELTKNKRAYLKKLLENLGYVEKRILEAEEINQLMNSINLNDIEINAFSKVAKNLIEKLNIRDDEIEIYIDACSTNTKKFEDSFKDKIEDIIKERNLNIKIIAEHKADAKYPVVSAASIIAKAERDEIIDYYKKIYGDIGSGYPSDPKTIKFLEDYFKKHKKLPDIARTHWKTCKRILDKSKQTKLIIE	soluble
TGEKTILKLKRSCLKPELRRIKAIVGLGLSGFTMAITNCTVQIMCNATLQAYGGDLYVGVMTVVNSVREVASLPVSGITQSAQPVLGFNYGAGEYGRVKKA	not soluble
MGSDKIHHHHHHMVYPVKDIQSVRDLALLAIRNKVSLEQQVETLGFESETYDYSSLLADLKVLPPLDHPDPTHCLISGTGLTHLGSASARDKMHQQNLSNDSSVTDTMRIFQWGLQKGRPAEGQIGAQPEWFYKGDGSIVVRPGAELPLPPFAEDGGEEPEIAGLYVIGEDLKPYRIGFALGNEYSDHVMERRNYLYLAHSKLRFCSFGPALRTGELPKHLVGTSRLRRDGQIIWEKEFLSGEDNMCHSLANLEYHHFKYQQFLKAGDVHIHYFGTATLSFADGIQAQVNDEFEIEMKEFGHPLKNKLAHMQPELPIGSVITL	not soluble
MASDLESSLTSIDWLPQLTLRATIEKLGSASQAGPPGSSRKCSPGSPTDPNATLSKDEAAVHQDGKPRYSYATLITYAINSSPAKKMTLSEIYRWICDNFPYYKNAGIGWKNSIRHNLSLNKCFRKVPRPRDDPGKGSYWTIDTCPDISRKRRHPPDDDLSQDSPEQEASKSPRGGVAGSGEASLPPEGNPQMSLQSPTSIASYSQGTGSVDGGAVAAGASGRESAEGPPPLYNTNHDFKFSYSEINFQDLSWSFRNLYKSMLEKSSSSSQHGFSSLLGDIPPSNNYYMYQQQQPPPPQQQQQQQQPPQPPPQQSQPQQQQAPAQGPSAVGGAPPLHTPSTDGCTPPGGKQAGAEGYGPPPVMAMHPPPLQHGGYHPHQHHPHSHPAQQPPPPQPQAQGQAPINNTGFAFPSDWCSNIDSLKESFKMVNRLNWSSIEQSQFSELMESLRQAEQKNWTLDQHHIANLCDSLNHFLTQTGHVPPQGGTHRPPAPARIADSCALTSGKQESAMSQVNSYGHPQAPHLYPGPSPMYPIPTQDSAGYNRPAHHMVPRPSVPPPGANEEIPDDFDWDLIT	soluble
EKQNEIQKKKARRHQLAMDYPEFISTFTLYLGAGMPARRAWFQIASVYRQQENTRYVYEEMVYTMREMQRGTPESECYEHFGMRCGLPVYRKFAVMLSQNLRKGTKGLAELLQREAAGAFEERKAAARKLGEETSTR	not soluble
MKKVGILNSEISKIVADMGHMDTLAVVDLGFPIPQGVKKVDLVVDRGKPGLMEVIEILLRELKVERIILAKEMDEKSIQTKQELLKLIEKMNGPVEVVTVPHKEFKEMSKNVKGIIRTGADIPYSNVILVGGVIF	soluble
MVRLTTELFAERPQFVNSVNMREINLRGQKIPVIENMGVTRDQFDVIDLTDNDIRKLDNFPTFSRLNTLYLHNNRINYIAPDIATKLPNLKTLALTNNNICELGDIEPLAECKKLEYVTFIGNPITHKDNYRMYMIYKLPTVRVIDFNRVRLTEREAAKKMFKGKSGKKARDAIQKSVHTEDPSEIEPNENSSGGGARLTDEDREKIKEAIKNAKSLSEVNYLQSILASGKVPEKGWNRQMDQNGADGEAMES	not soluble
